Assays:
Test in all cases: IEDB peptide-MHC binding, purified MHC/competitive/radioactivity; ≥ and ≤ were set here for values at or beyond the usual limits of such assays
Conditions in all cases: source organism: Bordetella pertussis
HLA-B*44:03 = biological target: HLA-B*44:03
HLA-B*53:01 = biological target: HLA-B*53:01
HLA-B*57:01 = biological target: HLA-B*57:01
HLA-B*35:01 = biological target: HLA-B*35:01
HLA-B*07:02 = biological target: HLA-B*07:02
HLA-A*02:01 = biological target: HLA-A*02:01

Q: Which IC50 (HLA-B*44:03) does the source give for AESSEAMAA here?
A: 7.54 µM

Q: How did the IC50 (HLA-B*53:01) turn out when PAPTAPPMP was run?
A: 53.4 µM

Q: Which IC50 (HLA-B*57:01) does the source give for VSVKVAKKL here?
A: 37.4 µM

Q: IETGGARRF was tested. Which IC50 (HLA-B*44:03) did it give?
A: 22.1 µM

Q: Which IC50 (HLA-B*35:01) does the source give for LPTHLYKNF here?
A: 10.5 µM

Q: Which IC50 (HLA-B*07:02) does the source give for HVRGMLVPV here?
A: 6.16 µM

Q: With RGWSIFALY as the sequence, how does the IC50 (HLA-B*57:01) read?
A: 1.05 µM

Q: How did the IC50 (HLA-B*53:01) turn out when YPALRAALI was run?
A: 9.5 µM

Q: Which results are given for DASGQHRLW?
A: IC50 (HLA-B*53:01): 25.6 µM; IC50 (HLA-B*57:01): ≥ 70.4 µM

Q: GAPAAVSVL was tested. Which IC50 (HLA-B*07:02) did it give?
A: 69.6 µM

Q: Which IC50 (HLA-B*44:03) does the source give for VEVSSPPPV here?
A: 28.8 µM

Q: FELGADHAV was tested. Which IC50 (HLA-B*44:03) did it give?
A: ≥ 78.2 µM

Q: How did the IC50 (HLA-A*02:01) turn out when VIDGQKVLA was run?
A: 35.2 µM

Q: AEATQLVTA was tested. Which IC50 (HLA-B*44:03) did it give?
A: 2.18 µM

Q: With KGPKLAMPW as the sequence, how does the IC50 (HLA-B*57:01) read?
A: 4.87 µM

Q: KAAKSVNLM was tested. Which IC50 (HLA-B*35:01) did it give?
A: 50.6 µM

Q: Which IC50 (HLA-A*02:01) does the source give for TLNASNLTL here?
A: 4.46 µM

Q: How did the IC50 (HLA-B*53:01) turn out when KPLADIAVI was run?
A: 15.7 µM

Q: How did the IC50 (HLA-B*35:01) turn out when AAESTFESY was run?
A: 44.6 µM

Q: Which IC50 (HLA-B*35:01) does the source give for HAEHEKDVR here?
A: 69.9 µM
